# The nanobody polyreactivity screen of Harvey et al. (2022)
# Assay: yeast display, Sf9 membrane polyspecificity reagent, FACS + sequencing; frameworks hold sequencing errors
# Summary of the method: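 A synthetic nanobody library was expressed on Saccharomyces cerevisiae BJ5465 by galactose induction for 36–48 hours. The library was stained for 1 hour at 4 °C with 10% biotinylated, detergent-solubilized Sf9 membrane reagent and enriched with streptavidin microbeads before FACS. Low and high (top ~1%) gates were set on anti-HA fluorescence for expression and streptavidin fluorescence for reagent binding, and each polyreactivity label reflects the gate of origin.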
row,Sequence,polyreactivity (PSR sort gate)
1,QVQLVESCGGLVHAGGSLRLSCAASGITLKWNDMGLYRQAPGKEREFVAAITGSTGSTFYADSVKGRFTISRDNAKNTVYLQMNSLKPEDTAVYYCAAGPWFYYWGQGTQVTVSS,low polyreactivity
2,QVQLVESCGGLVQAGGILRLSCAASGSTFRYYVMGWYRQAPGKERELVAAITSGGSKYYADSVKGRFTISRDNEQNTVYLQMNSLKPDDTAVYYCNKVYSRTFDYWGQGTQVTVSS,high polyreactivity
3,QVQLVESCGGLVQAGGILRLSCADYGSIFYYNAMGWYRQAPGKERQLVAAITRSGSTNYAESVKLRFTISRDNAKNTVYLQMNSLKPEDTAVYYCAAPWRGSVFRYYSWGQGTQVTVSS,low polyreactivity
4,QVQLVESCGGLVQAGGRLRLSCAASGRNFQQYAMGWSRQAPGKERELVAAISRGGSTYYADSVKGRFTISRDNAKNTVYLQMNRLKPEDTAVYYCAARWWRRFSGSHSLYDYWGQGTQVTVSS,high polyreactivity
5,QVQLVESCGGLVQAGGSHRLSCAASGSTFAYNDMGWYRQAPGKERELVADIRSGGNTNYADSVKGRFTISRDNAKNTVYLQMNSLKPEDTAVYYRATDGYRIDVYHPDYRYDYWGQGTQVTVSS,low polyreactivity
6,QVQLVESCGGLVQAGGSLRLICAASGSIFFRNAKGWYRQAPGKERELVAAIRYTGTSTYYADSVKGRFTISRDNAKNTVYVQMNSLKPEDTAVYYCAKPWGSVRRREMDYWGQGTQVTVSS,low polyreactivity
7,QVQLVESCGGLVQAGGSLRLSCAASGFICNGYTMGWSRQAPWKERELVAAISGSGGRTYYADSVKGRFTISRDNAKKTVYLQMNSLKPEDTAVYYCAASNWHSRGSGEYYWGQGTQVTVSS,high polyreactivity
8,QVQLVESCGGLVQAGGSLRLSCAASGFIFYYYAMGWYRQAPGKERELVAGITRGGSTYYADSVKGRFTISRDNAKNTVYLQMNSLKPEDTAVYYCASTYYLSYTSGTFGKFGYWGQGTQVTVSS,high polyreactivity
9,QVQLVESCGGLVQAGGSLRLSCAASGIIFRYYAMGWYRQAPGKEREFVASINFSGSSTYYADSVKGRFTISRDNAKNSVYLQMKSLKPEDTAVYYCAAGRRWLYDYWGQGTQVTVSS,high polyreactivity
10,QVQLVESCGGLVQAGGSLRLSCAASGITYVYYAMGWYRQAPGKERELVAGITSGTSTYYADSVKGRFTISRDNAKNTVYLQINSLKPEDTAVYYCATGYRRGSTYGYWGQGTQVTVSS,low polyreactivity
11,QVQLVESCGGLVQAGGSLRLSCAASGRTFPAYAMGWSRQAPGKERELVAAISSSGSRTYYADSVKGRFTISRDNAKNTVYLQMNSLKQEDTAVYYCAARGGRRQKVNRDDYWGQGTQVTVSS,high polyreactivity
12,QVQLVESCGGLVQAGGSLRLSCAASGRTFYKNTMGWYRQAPGKERELVATISQRGGSTYYADSVKGRFTISRDNAKNTVFLQMHSLKPEDTAVYYCNARHYYIWWRSPTRTAMNYWGQGTQVTVSS,high polyreactivity
13,QVQLVESCGGLVQAGGSLRLSCAASGSTFRFNTMGWYRQPPGKERELVAAITRGGSTNYADSVKGRFTISRDNAKNTVYLQMNSLKPEDTAVYFCAAGYCWTFDYDYWGQGTQVTVSS,low polyreactivity
14,QVQLVESCGGLVQAGGSLRLSCAASGSTFRTYAMGWYRQAPGKERELVASIDSTGSTNYADSVKGRFTISSDNAKNSVYLQMNSLKPEDTAVYDCAAETYSYPPFYAYDYWGQGTQVTVSS,low polyreactivity
15,QVQLVESCGGLVQAGGSLRLSCAASGSTFSYNAMGWYRQAPGKEREMVAAITYGGGSTYYADSVKGRFTISRDNAKNTVYLQMNSLKPEDTAVYYCAVEKYGRYRPYSYGYWGQGTQVTVSS,high polyreactivity
16,QVQLVESCGGLVQAGGSLRLSCAASGSTFVVNAMGGYRQAPGKERELVADISFTGDSTFYADSVKGRFTISRDNAKNTVYLEMNSLKPDDTAVYYCAADFRRVFSKYSYYLYFDFDYWGQGTQVTVSS,low polyreactivity
17,QVQLVESCGGLVQAGGSLRLSCAASGSTFYRNAMGWYRQAPGKEREFVAAISFRGGGTYADSVKGRFTISRDNAKNTVYLQMNSLKPEDTAVYYCAADHLSYRRRYEYWGQGTQVTVSS,low polyreactivity
